From patent US7592168B2, “Cephalosporin C acylase mutant and method for preparing 7-ACA using same” (Sandoz AG, priority 2003, dated 2009) come the findings set out here.

This data set has as its system [H][C@]12SCC(COC(C)=O)=C(C(=O)O)N1C(=O)[C@H]2NC(=O)CCC[C@@H](N)C(=O)O. The experiment in a line: CPC hydrolysis kinetics (Lineweaver-Burk plot), fivefold mutant. The class given is biochemical, Pseudomonas sp. SE83. Particulars: other: substrate CPC, purified enzyme, 0.1 M Tris-HCl pH 8.0, 37° C. The protocol:
The enzyme activity of CPC acylase mutant to CPC was measured according to the method described by Park et al. with minor modifications as follows (Park, et al., Kor. J. Appl. Microbiol. Biotechnol. 23: 559-564, 1995). A substrate solution was prepared by dissolving CPC (purity 74.2%; CJ Corp., Korea) in 0.1 M Tris-HCl buffer solution (pH 8.0) at a concentration of 20 mg/ml and adjusting pH to 8 with 1 N NaOH. 20 μl of the CPC solution was mixed with 20 μl of the crude enzyme solution prepared above and the reaction mixture was incubated at 37° C. for 5 min. After the reaction, the mixture (200 μl) of 50 mM NaOH and 20% glacial acetic acid (1:2) was added thereto to stop the reaction. 200 μl of the supernatant recovered from the reaction mixture by centrifugation was mixed with 40 μl of 0.5% (w/v) PDAB (p-dimethylaminobenzaldehyde; Sigma, USA) dissolved in a methanol and the reaction mixture was incubated at 37° C. for 10 min. After the reaction, the absorbance of reaction mixture was measured at 415 nm and quantified by comparing with a calibration curve of standard material. […] Meanwhile, the specific activity of CPC acylase mutant for CPC was determined by measuring the amount of protein remaining in the enzyme solution according to the method described by Bradford (Bradford, M., Anal. Biochem. 72: 248-254, 1976) and representing it as an active unit corresponding to 1 mg of protein. […]

For “Pseudomonas sp. SE83 CPC acylase AcyII fivefold mutant F169αY/M31βL/F58βM/H70βS/I176βV (mI176) (Pseudomonas sp. SE83; F170Y/F297M/H309S/I415V/M270L)”, the Km is 8 mM.

One may read the Km as the concentration of substrate that gives half-maximal velocity.
